{"source": "the DeepSol protein solubility set", "data": [{"assay": "soluble on expression in E. coli; label from the status in PepcDB or PDB records", "values": [{"sequence": "MSLNDQIKIRKATKEDWEKIYQLYNSLSDEDLYLRFFHLYRITEEDAKKIASNEDHVTFLAEVDGKVVGEASLHKDGEFSLVVHRNYRTLGIGTLLVKTLIEEAKKSGLSTVKFYTLPENTPMIKIGRKLGFKMRFYEDEVYGEMRLTERELNVNLATFSAPEGHHHHHH", "soluble on expression in E. coli": "soluble"}, {"sequence": "MKVKEHCGIVGVYADNSPMISYESLKLLQHRGQESAGITYRKDGSLVTMKGLGLVEEALDPRLLPNAKLSIGHVRYSTTGKGSLDEAQPLSNGKIAIAFNGTITNYFKFGTSTDTEFILKVLSEAPNIKEGIRRLVDLADGAYSLVVLTNEGELIGFRDPKGFRPLVLGKINNGYIIASEDSVIRQLGGKPLRDVKPGEMIYIKDGEIESEVISRDRVSFCSFEYIYFARPDSIIDGVSVYNSRIKLGEILAENHGVDADVAIPVPESSIPIAIGFSRKSKIPMEYGLIRTLVAKRSFIMPTQDKRNAVLEEKFGIVKSVVENKKVVVIDDSIVRGNTMRKIVRMIRDNGAKEVHVRIGSPKVKYPCYMGIDFPLSKELIASEKDEKEIAKYIGADSVEFLTVEEMIKAIGRPDLCHACFSGVYPLKFSYNLQVLESIFKKVS", "soluble on expression in E. coli": "soluble"}, {"sequence": "MGSDKIHHHHHHMNPVTHKAVLLLRPGKSPDDFTQQLRKTGRECFVHSFIEIEPLPVNKEQLTQIKQKHWDGIVIVSKNAAHYASRAGFSGVPSKYYAVGPGTASFACKHLNTAVSCPAFIHQSEGLLELSELQKLQQQNWLIIRGEGGRELLADAIRARGASVDYWEVYRRKQLTLNDPELIQQWISSVGTIVVTSAEQLGYFLSSMPNSAQSWLDSCQWIVPSHRLKGLIPFGQSDNIKVTGSAADAILMNALIADGKTHD", "soluble on expression in E. coli": "not soluble"}, {"sequence": "MPVRASIEPLTWENAFFGVNSAIVRITSEAPLLTPDALAPWSRVQAKIAASNTGELDALQQLGFSLVEGEVDLALPVNNVSDSGAVVAQETDIPALRQLASAAFAQSRFRAPWYAPDASGRFYAQWIENAVRGTFDHQCLILRAASGDIRGYVSLRELNATDARIGLLAGRGAGAELMQTALNWAYARGKTTLRVATQMGNTAALKRYIQSGANVESTAYWLYR", "soluble on expression in E. coli": "soluble"}, {"sequence": "MNKLLTSKSEIIERKIRYDSTTVEHTCLLLEKQLRSIVLFHEVQYSFTMNTHDSSLTIPKGSYTIAYYWEDRPYNLYIWRDKDGMYVGSYFNVVKNTQITDELVSFEDLIIDILVLPSGEYFILDEDELPESLEEFEDGYVNEALHVLEEIIQKTLPQMIVETERVRLN", "soluble on expression in E. coli": "not soluble"}, {"sequence": "MSLYSGYGYFYRGKFMKPFESHNKQLKILRRRGMEVPSSAKRDLENENYYNIINGYKDLFLELDVNGNFLVPDKYKQGTHFKEVFSLYKLDRKFRNVLLEYLLVFETHIKSRISYYFSEKYREPHSYLYFKNYSSDTSKTDSIVKMVATFSSVMSNRKNKPLKHYINTHNGVPLWILVNYLTLGNVSKMYSNLDDDLRLEVAKDYKRKLERDYKTRVQITPSDVDSILQQAHMFRNVCAHEERLYDYKIDRAKSRANIFANYNKIYDKEYVPTMNGSYVFDLLISLCLFLNKHDYIKLVKNMDKLISNYSHSFYTITIDDLYTKMNFPDQTKILDMLEGHHHHHH", "soluble on expression in E. coli": "soluble"}, {"sequence": "MNNVFVYCEIEGTTVADVSLELLTKGRKLANQLGCQLEAIAAGTGLAGIEKQVLPYGVDKLHVFDAPGLFPYTSLPHTSILVNLFKEEKPQICLMGATVIGRDLGPRVSSALTSGLTADCTQLEIGTHEDKKNGITYENLLYQIRPAFGGNIVATIVNPEHRPQMATVREGVMKKEILDENYKGEVVNHDVAKFVPETDYVV", "soluble on expression in E. coli": "not soluble"}, {"sequence": "MSLTEYVDAVPAASMTVCTVQHTDTTPQHSINEDRVIPLDSNKGIADMEFGDAHTLAHRVSASAERMYRFSSIETTQFIKILLRKMAARMASLASCHTHVYASSHSLPWDSACEHYIFGMRRILIEGHHHHHH", "soluble on expression in E. coli": "not soluble"}, {"sequence": "MEFDKLYGPSNVENRLVQVKATTAEAIHFNRQIQPIIENRCVVCHGCYDAPCQLKMESRAGIERGANKAMVYNGERLLTANISASLTKLTELKRDNLEPLRQQGYFPVLNERQQTEQANTQSSLFYQMLQLKKQHPLPSEPILNESFDVALDRSQQCPTIEEFEQYKDKYPLGGMPYALPALSTTEHDQLTDWIARGAIMPDSVPPNAKEQQMINRWEKLLNGSSAKEQLIARYLFEHLYLANLYFDKAQSSYFKLVRSSSPSGEKVAVITTRRPFDSPYADGSTDAIVDKPQVYYRLIKHNDTIIAKRHMPYPFGESKLARISELFYQPDYPVTTLPDYQLANASNPFKTFQAIPDKARYQFLLDQAQFSIMNFIKGPVCRGQIALNVIEDNFWVFFLSPNNFDHYPSEQFIKANTELLQLPAGTSDKSLSLLYWRQYAKSQQEYVKNKLAYVEGLNLQPNQLNLDLIWSGKGNPNASLTVFRHFDSASVLQGFVGPTPKTAWLISYPLLERIHYLLVAGFDVYGSVSHQLKTRLYMDFLRMEAESNFISFLPKDERKAIHEYWYRETGDDIKDYIFSDGFYQLPETGMNYQSNKHQEELFQLVGQHTKNTNVSQFNLSSLAQSSADKIIANLSQLPNESVALLPQVSYVMVSNGDDNQVYSLINNSAHSNVAHLFSEENRRLPREDNLAILRGVVGTYPNAFFKVEQAQLSEFVSNLNAIKTEQDYRKLKDQFAIRRTNPKFWIFADELHAWYKTNQPKSAGLLDFNRLENRLEHHHHHH", "soluble on expression in E. coli": "not soluble"}, {"sequence": "MGSDKIHHHHHHMSEKQTTILIINMASDFGGGEIQTEELMLNLTNYNICFFGKSSGKFIPRLKEKAPHIKIVNLWEMLKLVFCCSSLIIHAQDGRGAHIAGFLKKISGRPVVITRHVSFPFKRKFSLSSYKNADMLVGVSQQVTENLKLLNSNCRTIYGCIKPLLENAEFEQRYFVKKHILAIAHIGNLQAVKNFQLTLSLAKNFSQIQFFIVGSGELEQELKQQAINLPNITFIPFTPYIGSVFKKVDLQIVPSHSEGLGAVILEGYQYRVSVIAHQTGGISEIVQNEKTGFLVENNDPMIYHKILTTLLDNPQKLCELKQNVERYIFEHDFSARRMALEYEQVYSAILANRTQK", "soluble on expression in E. coli": "not soluble"}, {"sequence": "MGSDKIHHHHHHMALALTLREYEFSVLLLEARELPEKVDDPRPLALSYGSRLILQRLDIWKNLTQPAPITTIHISNRGHFGHAVLTPDDAGVPALGYVVNYHDLYHSMGRAIRGSNAVYQTNALVTAIRTDLSLAQVAYQQGSTTRQVRARLLVLADGGKLAEQIDGVRYHTYDYQQTAIVANVKVESPRPGTAFERFTLNGPLALLPSGEGYALVWTMPAAAAEKILKLDDRSFLLHLHEQFGDRMGEFTHVGPRSSFPLILKHASTITGHRAVLIGNAAQALHPVAGQGFNLGLRDAWELASEISRIPSGTPGEPGSTRMLAAYSRRRQSDKRISRLFTDSLVKLFTADLPLVQTCSGMGLAALDNLPPARRLIAHQMIFGTKGWFIG", "soluble on expression in E. coli": "not soluble"}, {"sequence": "MEVLKLQLRQWQAEKLGEAINALKHGKTLLLNAKPGLGKTVFVEVLGMQLKKKVLIFTRTHSQLDSIYKNAKLLGLKTGFLIGKSASCIYAQGDEEPDEINCSKCRLKDKIKTIEDKEPSKLIEEFKDAVDYCPYYSLRANLKDKDVIAMTYPYLFQKPIRNSVFCNKDDCLKLEDYLIVIDEAHNLLEADKWFTRKISRKMLERALKEIEIVERLNRIDAKKVKDYINLLIDYMSKLIKDGRCHELSLMPLPDRETNGELIVVTRAYLNIDEGPVKKSSLKSLLKFVEMKGDLYNCNGSLVKVPSDVNQLIEDALNVKTFKVLMSGTLPESLTLTNSYKIVVNESYGRGEYYYCPNVTSELRKRNSNIPIYSILLKRIYENSSKSVLVFFPSYEMLESVRIHLSGIPVIEENKKTRHEEVLELMKTGKYLVMLVMRAKESEGVEFREKENLFESLVLAGLPYPNVSDDMVRKRIERLSKLTGKDEDSIIHDLTAIVIKQTIGRAFRDPNDYVKIYLCDSRYREYFADLGISEKEIKLFA", "soluble on expression in E. coli": "soluble"}, {"sequence": "MAHHHHHHSLKILFVAAEGAPFAKTGGLGDVIGALPKSLVKNNNEVSVILPYYDVVDAKFGDQIEDLFYFFTNVGWRREYVGIKHIFRDGVDFYFIDNKHYFYRGQIYGEFDDGERFAYFQLAALEAMEKIQFIPDILHVHDYHTAMIPYLLKEKYHWINAYHGIKTVFTIHNIEFQGQFNPSMLGELFGVGDERYRDGTLRWNDCLNWMKAAVLYADRVTTVSPSYAKEIMTPEFGKGLDQIMRMESGKLSGVVNGIDTDLFDPETDPHLAVHFSKDDLSGKAKNKAALQERVGLPVREDVPLVGIVSRLTDQKGFQLVVDQLNTMMQLDLQIVLLGTGYADFENAFAWFGHAYPDKMSANITFDLELAQQIYAASDIFLMPSAFEPCGLSQMMAMRYGTLPLVHEVGGLRDTVIPYNEFEKTGTGFGFQDFSGYWLTKTLEAALDVYYNRKEDWKILQKNAMTTDFSWDTASQSYEHLYKELAEG", "soluble on expression in E. coli": "soluble"}, {"sequence": "MSDPSAKPLQEHILIILDDAGRREVLLTETFYTIGRSPRADIRIKSQFVSRIHAVLVRKSSDDVQAAYRIIDGDEDGQSSVNGLMINGKKVQEHIIQTGDEIVMGPQVSVRYEYRRRDQFGTMLEHHHHHH", "soluble on expression in E. coli": "soluble"}, {"sequence": "MGSDKIHHHHHHYDLSDVNTDDAVMGESWVAPLGMGYVTSDDVVNVEKVPSIREVDGAYVMIYDGEMKIKGKSLRAASDKVEIASEDITTGDIDGLFDGDFVLALTNPHITLKSNVKNASLDCSLSIEAENTSKKEATSSDFTLSTVSPNIWIGPLDPKTDAFKFVKNEKLPGIVQIVPQKIHLSLSADSKQWTNAPADALSELRYAVELPLTPAPEFSAVSVERIEDAFDEDFVDYIFSDGSARIYGEVTNEMPFDMSIEMVIMDENNVPVDIQFPAQEVKGQSGEVIFEITKEDMPKMKDARHIDLNLHLTGRDQGEALKKGQKTTFNLKLKKEGGISI", "soluble on expression in E. coli": "not soluble"}, {"sequence": "MSMIYKNIVCPVCGAACDDIQVEFGDGKIEARNACKMGNAKFQEVVSSHRLRQPLIKVNGRLTAAAWDEALERAADILVSAKRPLLFMGSETSCEAHEVGLKIGEYLGALVDSNATICHGPTAMGIQESGKVGATEGQKKNRGDLIVYWGTNPLESMPRQMSRYGVFPRGYWTKRGRFDRTVITVDPRKTPTTEASDLHVQLKPGSDYELISALLTLLHGKTPHPSVEEITGVPIPVMEEMLDMMKNCNFGAISVGLGLSSSIGKHRNAEIAMNLVKELNNYAKFTLGALRGHCNVAGFNQVASYMYGYPFGLDFMRGHPRYNPGEYTTVDVLREKDVDAAFVMCADLVCHIPADCASYLAEIPMVCLDIAPCPSTAASDVVLPGVIDAMECDGTFYRLDDVAVHFEPFTSSPFEFTKSNEDTLKQLFEKIKARK", "soluble on expression in E. coli": "not soluble"}, {"sequence": "GSRLNPVQLELLNKLHLETKLNAEYTFMLAEQSNWNYEVAIKGFQSSMNGIPREAFVQF", "soluble on expression in E. coli": "soluble"}, {"sequence": "MIVFYDSWCPMCTAVAEHTKKLDKKGKMKFVSFRNEDVVEKYELSQELQSKMEQRLYIFKNNKWYDGIQSIDVLAKAVPSYWFAVPFIKLSIVLGFGSKVYDYIANNRKLVPVGHCRGGVCEIPTKK", "soluble on expression in E. coli": "not soluble"}, {"sequence": "MAFRQPNTKELKVIRKALSYYGSGDFLSHYALLVKEGEKKEVYGVSKELYGVIGELNPHYAGVKIGEVGRRFRFSLEGTFWLLRNSRNRVWVNERGEMLFLYGRDIFAGSVERASEFGENSIVFVCNRFDDVLGIGRSRHSSDELSNLPEDKVFVENLVDRGEYLRHQKTYLSF", "soluble on expression in E. coli": "not soluble"}, {"sequence": "MTRPIGIYEKATPKHFNWLERLQFAKELGFDFVELSIDESDERLARLEWSKEERLELVKAIFETGVRVPTITFSGHRRFPMGSNNPEKEARAMDMMKKCIVFAQDIGIRNIQLAGYDVYYEEKSPETRARFIKNLRQACTWAEEAQVILSIEIMDDPFMNSIEKYLAVEKEIDSPYLFVYPDTGNVSAWHNDLWSEFYNGHRSIAALHIKDTYAVTETSKGQFRDVPFGQGCVDWEEMFAVIKKTNYNGPFLIEMWSENCETVEETRAAIKEAQDFLYPLMEKTGVK", "soluble on expression in E. coli": "not soluble"}]}]}
